Data published in US20210253679A1 (NATIONAL RESEARCH COUNCIL OF CANADA, published 2021).
Numbering of substitutions follows the chain as printed.

B1: M75 sdAb (VHH)
VHH: QVQLVESGGGFVQAGGSLRLSCAASGRTFDNYVMAWFRQAPGKEREFVASISGSGSITNYANSVKDRFTISRDSAKNAIYLQMNSLKPEDTALYYCAAGSRRTYYREPKFYPSWGQGTQVTVSS
notes: also called M75 VHH
B2: R11-H4 (VHH)
VHH: QVQLVESGGGLVQPGGSLRLSCAASGFLLRSNTMGWYRQAPGKERELVAFIRPSGLTNYNDAVQGRFTISRDNSKNTLYLQMNSLRAEDTAVYYCHTRPPFQRDSWGQGTLVTVSS
B3: R11-H3 (VHH)
VHH: B2 VHH with Q1E, A49S

Key:
human serum albumin [1] = target: T1, human serum albumin (human, UniProt P02768 25-609); assay: SPR, single cycle kinetics, pH 5.5
T1 construct: also called HSA

human serum albumin [2] = target: T1, human serum albumin; assay: SPR, single cycle kinetics, pH 7.4
rhesus serum albumin [3] = target: T2, rhesus serum albumin (rhesus, UniProt Q28522 17-600); assay: SPR, single cycle kinetics, pH 7.4
T2 construct: also called RhSA

rat serum albumin [4] = target: T3, rat serum albumin (rat, UniProt P02770 25-608); assay: SPR, single cycle kinetics, pH 7.4
T3 construct: also called RSA

mouse serum albumin = target: T4, mouse serum albumin (mouse, UniProt P07724 25-608); assay: SPR, single cycle kinetics, pH 7.4
T4 construct: also called MSA
T4 sequence (P07724 25-608 limits assumed): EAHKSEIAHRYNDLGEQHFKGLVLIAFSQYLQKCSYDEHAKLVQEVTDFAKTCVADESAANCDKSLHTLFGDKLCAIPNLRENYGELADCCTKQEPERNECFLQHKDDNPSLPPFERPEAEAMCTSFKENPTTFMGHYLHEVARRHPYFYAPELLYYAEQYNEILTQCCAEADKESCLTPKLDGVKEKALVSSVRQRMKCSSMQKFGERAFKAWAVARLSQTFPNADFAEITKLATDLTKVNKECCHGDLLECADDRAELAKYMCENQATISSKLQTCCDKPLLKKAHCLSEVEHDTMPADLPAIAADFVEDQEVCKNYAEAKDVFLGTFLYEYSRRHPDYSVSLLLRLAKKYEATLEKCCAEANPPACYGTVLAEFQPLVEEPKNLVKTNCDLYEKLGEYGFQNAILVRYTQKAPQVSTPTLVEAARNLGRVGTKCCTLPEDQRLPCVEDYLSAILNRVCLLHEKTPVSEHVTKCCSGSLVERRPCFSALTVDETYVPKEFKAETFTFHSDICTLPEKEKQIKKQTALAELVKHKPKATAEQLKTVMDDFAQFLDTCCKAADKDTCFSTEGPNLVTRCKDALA

human serum albumin [5] = target: T1, human serum albumin; assay: SPR, single cycle kinetics, pH 5.5; remark: listed apart in the source
human serum albumin [6] = target: T1, human serum albumin; assay: SPR, single cycle kinetics, pH 7.4; remark: listed apart in the source
HSA domain 2 (DII) = target: T5, HSA domain 2 (DII) (human, UniProt P02768 213-409); assay: SPR, 100 nM VHH over an amine-coupled DII surface
T5 construct: domain: DII

human serum albumin [7] = target: T1, human serum albumin; assay: SPR, pH 7.4; complex binding, data not analyzable
rhesus serum albumin [8] = target: T2, rhesus serum albumin; assay: SPR, pH 7.4; complex binding, data not analyzable
rat serum albumin [9] = target: T3, rat serum albumin; assay: SPR, pH 7.4; complex binding, data not analyzable

Binder	Kd (human serum albumin [1])	Kd (human serum albumin [2])	Kd (rhesus serum albumin [3])	Kd (rat serum albumin [4])	Kd (mouse serum albumin)	Kd (human serum albumin [5])	Kd (human serum albumin [6])	binding result (HSA domain 2 (DII))	binding result (human serum albumin [7])	binding result (rhesus serum albumin [8])	binding result (rat serum albumin [9])
B1	735 nM	1.2 nM	2.9 nM	315 nM	510 nM	735 nM	1.2 nM	no binding (tested: 100 nM)			
B2									binds	binds	binds
B3									binds		binds
